Legend:
4T1 breast tumor cells = assay: 4T1 breast tumor growth model; format: in vivo, BALB/c-WT mice; conditions: equal to 160 ng free taxol every two days; n=12
Experimental: Mice were anesthetized with isoflurane and underwent subcutaneous injection with 4T1 breast tumor cells in the mammary glands (1×10^5 cells per mouse). Starting at 9 days post-implantation, free Taxol or MHA112-Taxol were administered every other day intraperitoneally for 24 days. Tumor growth was monitored two times per week by digital caliper.

4T1 tumor cell lines = assay: 4T1 breast tumor liver portal vein metastasis model, survival; format: in vivo, mouse; conditions: 160 ng every other day intraperitoneally for 20 days, starting 4 hours post-implantation
Experimental: To investigate the effect of MHA112-Taxol on tumor metastasis, 4T1 tumor cell lines were gently injected into the portal vein (1×10^4 cells per mouse) of mouse liver. Starting 4 hours post-implantation, 160 ng of free Taxol or MHA112-taxol were administered every other day intraperitoneally for 20 days. Survival was monitored every day.
(§1) Glutaric anhydride (100 mg, Sigma-Aldrich) and taxol (33 mg, LC laboratories) were prepared in a 4 mL vial dried under high vacuum for 24 hours and dissolved in 1 mL of pyridine. The solution was stirred at room temperature under Ar atmosphere for 2 hours. The reaction was quenched by removal of solvent under high vacuum for 2 hours. 2′-Glutaryl taxol was purified by a reversed phase HPLC (Phenomenex Luna 5 μm C18 250×10.0 mm, flow rate 2 mL/min, UV 250 nm detection) with a gradient solvent system (15% to 75% ACN/H2O with 0.1% formic acid for 40 minutes). 2′-glutaryl taxol (0.2 mg) dissolved in DMSO (Thermo Scientific Fisher) was activated with 1-ethyl-3-(3-dimethylaminopropyl)carbodiimide hydrochloride (EDC, 0.4 mg, Sigma-Aldrich) and Sulfo-NHS (N-hydroxysulfosuccinimide) (1.1 mg, Thermo Scientific Fisher) for 15 minutes at room temperature in MES buffer (pH 6.0, Thermo Scientific Fisher) (final solution; ˜1 mL in 10% DMSO). The EDC was quenched by 2-mercaptoethanol (1.4 μL, Sigma-Aldrich) for 10 min. […]

[1] = test system: Panc02 pancreas tumor cells; assay: Panc02 pancreas tumor model, survival; format: in vivo, mice; conditions: 160 ng every other day intraperitoneally for 20 days, starting 4 hours post-implantation
Experimental: Mice were anesthetized with isoflurane, and Panc02 pancreas tumor cells were gently injected in pancreas of mice. Two million cells (2×10^6 cells) were injected per mouse for Panc02 tumor model. Starting 4 hours post-implantation, 160 ng of free Taxol or MHA112-taxol were administered every other day intraperitoneally for 20 days. Survival was monitored every day.
as §1

[2] = test system: 4T1 tumor-draining lymph nodes (TDLNs); assay: Immunostaining of 4T1 tumor-draining lymph nodes (TDLNs); format: in vivo, mice; conditions: 4T1 TDLNs, fluorescence micrographs
Excerpt: Thus, the effect of the LN delivery of MHA112 in the tumor population in the LN was investigated. The extent of MHA112's ability to restore the overall structure of LN was also investigated. […] 4T1 tumor-draining lymph nodes (TDLNs) were cut by cryo-sectioning and stained with anti-HEV (sc-19602, SCBT), anti-LYVE1 (ab14917, Abcam), anti-Pan-Cytokeratin (C2931, Sigma), anti-collagen I (ab34710, Abcam), anti-collagen IV (ab6586, Abcam), and anti-laminin (ab11575, Abcam). […] The stained tissue sections were visualized using an EVOS™ FL Auto 2 Imaging System. […] The structure changes of TDLNs was also examined.

[3] = test system: CHO cells expressing PNAd (CHO-PNAd); assay: Cell-based ELISA binding affinity
Experimental: To compare the affinity of MHA112 with MECA79, cell-based ELISA was performed. CHO cells expressing PNAd (CHO-PNAd) (2×10^4) were coated onto 96-well plates and incubated overnight at 37° C. After five washes with phosphate buffered saline (PBS), the plates were fixed with 1% paraformaldehyde (PFA) and blocked with 3% bovine serum albumin (BSA). MECA79 and MHA112 were serially diluted from 1 ng/ml to 300 μg/ml. After five washes in PBST, horseradish peroxidase-(HRP-)conjugated goat anti-mouse and anti-rat secondary antibodies were added at a 1:10,000 dilution and incubated for 1 hour at room temperature. Binding was detected with the addition of TMB (3,3′,5,5′-tetramethylbenzidine) substrate, and the reaction was stopped by adding TMB Stop Solution (N600, Thermo Scientific). Absorbance signals were read at 450 nm.

T cells homing to LNs = assay: Blocking of labeled T cell homing to LNs (flow cytometry); format: in vivo, C57BL/6 mice; conditions: 200 μg i.p. 2 hours before T cell injection, 19 hours after transfer
Experimental: To test whether MHA112 mAb can block T cells homing to LNs in vivo, T cells were labeled with fluorescein isothiocyanate (FITC) florescence dye and transferred into naïve mice, and their distribution assessed 19 hours later. MHA112 (anti-HEVs) reduced the number of transferred T cells that entered Axillary (Axi), Inguinal (Ing) and Brachial (Bra) LN by over 25% (FIG. 4). […] Labeled T cells that entered spleen were not changed in three groups (FIG. 4).
Spleens were harvested from three C57BL/6 mice. Single cell suspensions were prepared, and cells were positively enriched for T cells with MACS reagents and columns (Miltenyi Biotech, Bergisch Gladbach, Germany) according to the manufacturer's instructions. For injection, T cells were labeled with CellTracker Green (Thermo Fisher) and resuspended in sterile saline, and 5 million T cells were injected in 100 μl each mouse. Blocking antibodies MHA112 and MECA79 were administered intraperitoneally (i.p.) at 200 μg in 200 μl per mouse 2 hours before T cell injection. 19 hours after transfer, mice were euthanized and LNs were processed for flow cytometry.

[4] = test system: high endothelial venules (HEVs) of human tonsil; assay: Immunofluorescence staining of HEVs in human tonsil section; format: binding; conditions: hybridoma supernatant
Excerpt: (§2) Two of GlcNAc6ST1/2/4 triple knock-out (KO) mice, which lack the peripheral lymph node vascular addressin (PNAd), were immunized with Chinese hamster ovary (CHO) cell lines expressing CD34 decorated with sialyl Lewis^X (sLeX)-type glycans. MHA112 single hybridoma clone was identified by HEV immunofluorescence staining. The supernatant of MHA112 hybridoma culture was collected and used to stain mice lymph nodes (LNs) and human tonsil section.
(§3) Two of GlcNAc6ST1/2/4 triple KO mice, which lack the PNAd, were immunized with CHO cell lines expressing CD34 decorated with sLeX-type glycans. After the 3rd immunization, mice were sacrificed for hybridoma. Around 500 single clones were screened by HEV staining. Monoclonal antibody MHA112 against mice and human HEV was identified.
(§4) Fresh LNs were embedded in tissue-freezing medium. Cryostat sections (8 μm thick) were cut for imaging by fluorescence confocal microscopy. MHA112 was used for tissue staining as primary antibody. Alexa Fluor 488-conjugated anti-mouse IgM was used as secondary antibody. DAPI was used to stain the cell nuclei.

[5] = test system: high endothelial venules (HEVs) of mice lymph nodes (LNs); assay: Immunofluorescence staining of HEVs in mice lymph node sections; format: binding; conditions: hybridoma supernatant
Excerpt: as §2, §3, §4

Molecule	growth of 4T1 mouse breast tumors versus control group treated with PBS (4T1 breast tumor cells)	median survival time (MST) (4T1 tumor cell lines) [days]	median survival time (MST) [1] [days]	expansion of HEVs and lymphatics (LYVE1) in TDLNs [2]	binding affinity higher than MECA79 [3] [%]	Kd ([3]; fitting curves, absorbance 450 nm) [nM]	reduction of number of transferred T cells that entered Axillary, Inguinal and Brachial LN (T cells homing to LNs)	reduction of number of T cells that entered mesenteric LNs (T cells homing to LNs; of PBS controls)	staining of HEVs structure [4]	staining of HEVs structure [5]
CC(=O)O[C@H]1C(=O)[C@@]2(C)[C@H]([C@H](OC(=O)c3ccccc3)[C@]3(O)C[C@H](OC(=O)[C@H](O)[C@@H](NC(=O)c4ccccc4)c4ccccc4)C(C)=C1C3(C)C)[C@]1(OC(C)=O)CO[C@@H]1C[C@@H]2O [free Taxol, taxol]	significantly slower growth	37	32	expanded						
MHA112: anti-PNAd monoclonal antibody, mouse IgM, VH SEQ ID NO:2 and VL SEQ ID NO:7 (antibody, V domains shown, mouse IgM constant regions; MHA112 Heavy chain; MHA112 Light chain) VH: QVQLKESGPGLVAPSQSLSITCTVSGFSLTSYGVDWVRQPPGKGLEWLGVIWGGGSTNYNSALMSRLSISKDNSKSQVFLKMNSLQTDDTAMYYCAKHSKGGYFDVWGTGTTVTVSS VL: EIVLTQSPAITAASLGQKVTITCSASSSVSYMHWYQQKSGTSPKPWIYEISKLASGVPARFSGSGSGTSYSLTISSMEAEDAAIYYCQQWNYPLITFGAGTKLELK					30	0.97	over 25%	around 12%	stained	stained
